# Reference: patent US20230000956A1, “COMBINATION THERAPY WITH GLUCARPIDASE WITH METHOTREXATE/RITUXIMAB TO TREAT CNS LYMPHOMA” (MEMORIAL SLOAN KETTERING CANCER CENTER, priority 2019, published 2023)
# Entries after “also recorded” stand apart in the source; their conditions may differ. Read-outs that look alike come from different tables or passages of the source.
# T1: glucarpidase enzymatic activity (Pseudomonas sp., UniProt P06621)
# T1 sequence (P06621 23-415): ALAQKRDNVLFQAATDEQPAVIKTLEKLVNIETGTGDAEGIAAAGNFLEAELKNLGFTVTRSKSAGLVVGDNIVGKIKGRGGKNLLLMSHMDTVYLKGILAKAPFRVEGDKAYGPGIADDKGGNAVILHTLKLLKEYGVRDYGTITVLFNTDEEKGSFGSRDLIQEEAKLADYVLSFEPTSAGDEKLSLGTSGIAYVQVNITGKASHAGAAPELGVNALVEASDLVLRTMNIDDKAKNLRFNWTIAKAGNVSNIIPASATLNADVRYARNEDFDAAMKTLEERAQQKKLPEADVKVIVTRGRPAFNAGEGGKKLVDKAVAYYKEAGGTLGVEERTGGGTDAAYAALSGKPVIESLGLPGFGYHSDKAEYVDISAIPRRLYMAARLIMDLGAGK
# B1: glucarpidase: recombinant bacterial enzyme that cleaves serum MTX to inactive metabolites (SEQ ID NO: 1) (protein)
# chain: T1 sequence (P06621 23-415)
# Assays:
# [1] = cited from earlier work
# [2] = cited from earlier work; remark: listed apart in the source
# [3] = Serum MTX level after outpatient HD-MTX with glucarpidase (Example 3); assay type: in vivo; settings: human, intravenous, outpatient MTX 3.5 g/m^2, glucarpidase 2000 U next day, 7 treatments, 3 patients, all cases, read-out: serum MTX levels at 48 hours
# CNSL = settings: cited from earlier work
# [4] = Serum MTX levels before and after glucarpidase, mass spectrometry (Example 1)
# Description: (§2) Patients were enrolled into two cohorts with Cohort A receiving MTX 3 g/m^2 and Cohort B receiving MTX 6 g/m^2. Glucarpidase 2000 U or 1000 U was administered 24 hours following the initiation of MTX infusion. […] In the present Example, rituximab was administered on Day 1, MTX on Day 2, glucarpidase Day 3, followed by an 11-day non-treatment period before the start of the next cycle.
# [5] = CSF MTX concentrations following glucarpidase (Example 1); assay type: in vivo, human; settings: evaluated in two patients
# Description: (§1) Cerebrospinal fluid (CSF) was collected throughout treatment. Serum was collected for analysis of anti-glucarpidase antibodies. […] Rituximab was always dosed at 500 mg/m^2.
# [6] = CSF MTX and glucarpidase (Example 2)
# Description: Methods. In a phase I dose-finding study of planned-use glucarpidase following HD-MTX, patients were treated with either MTX at 3 g/m^2, 6 g/m^2, or 8 g/m^2. Glucarpidase was dose-reduced to 1000 U or 2000 U and given 24 hours after MTX. […] MTX levels following glucarpidase were determined via mass spectrometry as immunoassay fails to differentiate MTX from byproducts.
# [7] = biological target: T1, glucarpidase enzymatic activity; settings: serum from four of 22 patients with an antibody response; cited from earlier work
# [8] = in vivo
# Description: as §2
# [9] = tested on: anti-glucarpidase antibodies; design: species or system human; settings: in vivo
# [10] = tested on: anti-glucarpidase antibodies; settings: in vivo; cited from earlier work
# [11] = in vivo; cited from earlier work
# [12] = assay type: in vivo, human
# [13] = Adverse events (Example 1); design: species or system human; settings: in vivo
# Source text: A cycle is typically 14±7 days.
# [14] = design: species or system human; settings: in vivo
# [15] = tested on: anti-glucarpidase antibodies; assay: Anti-glucarpidase antibodies in serum (Example 1); assay type: in vivo, human; settings: two patients, one result per patient
# Description: as §1
# [16] = cited from earlier work; remark: listed apart in the source
# [17] = setting of MTX-related acute kidney injury
# [18] = around 24 hours after glucarpidase, 8 doses
# [19] = typically around 24 hours after glucarpidase
molecule,measurement,setting,value
"CN(Cc1cnc2nc(N)nc(N)c2n1)c1ccc(C(=O)N[C@@H](CCC(=O)O)C(=O)O)cc1 [MTX, Methotrexate]",adults sustaining acute kidney injury,[1]; HD-MTX,2-12%
same,"incidence of systemic toxicities (hepatic injury, pneumonitis, bone marrow suppression)",[1]; in vivo,< 10%
same,patients requiring MTX dose reduction,[1]; [17],14-44%
same,patients with premature cessation of therapy,[1]; [17],5-8%
same,blood brain barrier penetration,[2]; high doses (>1.5 g/m^2) as a rapid infusion,penetrates the blood brain barrier
same,share cleared via renal excretion,[2]; in vivo,70-90%
same,concentration at 48 h,[3],< 100 nM
same,overall response rates (ORR),"CNSL; PCNSL, upfront setting",up to 74%
same,survival benefit,"CNSL; retrospective analysis of 357 patients, regimens with doses 3 g/m^2",statistically significant survival benefit
same,median elevation of MTX (transient increase),[4]; [18],290 nmol/L
same,range of elevation of MTX (transient increase),[4]; [18],119 to 516 nmol/L
same,serum MTX levels within 15 minutes of glucarpidase,[4]; in 23/24 doses,less than 100 nmol/L
same,doses followed by transient increase in MTX levels above 100 nmol/L,[4]; [19],8 of 24
same,share of doses followed by transient increase in MTX levels above 100 nmol/L,[4]; [19],33%
same,CSF methotrexate concentrations following glucarpidase administration,[5],remained therapeutic
same,MTX concentrations in CSF (potentially cytotoxic),[6]; 25 hours following MTX administration (1 hour after glucarpidase),10^−6 M
same,CSF MTX concentrations following glucarpidase (conclusion),[6]; in vivo,remain at cytotoxic levels
B1,inhibition of glucarpidase enzymatic activity in vitro by patient serum,[7],28-58%
same,"decrease in serum MTX levels, remaining dose",[8],93%
same,patients with anti-glucarpidase antibodies detected,[9],6 of 8
same,antibody formation post glucarpidase,[10],37-43%
same,patients developing antibodies,[10],roughly 17%
same,half-life,[11],6 to 9 h
same,volume of distribution,[11],3.6 L
same,reduction in serum MTX levels within 15 minutes,"[12]; glucarpidase 1000 U (14 treatments) or 2000 U (36 treatments), following 49/50 doses",≥ 95%
same,doses with at least a 95% reduction in serum MTX levels within 15 minutes,[12]; glucarpidase 1000 U or 2000 U,49/50
same,"decrease in serum MTX levels, remaining dose",[12]; in vivo,93%
same,efficacy after repeated doses and antibody formation,[12]; low-dose glucarpidase,remains effective even after repeated doses and despite the formation of anti-glucarpidase antibodies
same,reduction of MTX levels (conclusion),[12]; low-dose glucarpidase,> 95%
same,adverse events associated with glucarpidase administration,[13],no adverse events associated with glucarpidase administration
same,grade 3 events,[14],no grade 3 events
same,grade 4 events,[14],only one grade 4 anaphylactic reaction
same,anti-glucarpidase antibody titer levels,[15],detectable anti-glucarpidase antibodies; also recorded: did not develop any anti-glucarpidase antibodies
same,doses with at least a 95% reduction in serum MTX levels within 15 minutes,[4]; glucarpidase 2000 U or 1000 U,23/24
same,share of doses with at least a 95% reduction in serum MTX levels within 15 minutes,[4]; glucarpidase 2000 U or 1000 U,96%
same,reduction in serum MTX levels within 15 minutes of administration,"[4]; glucarpidase 2000 U or 1000 U 24 h after MTX 3 or 6 g/m^2, in 23/24 doses",≥ 95%
same,effect on serum MTX levels (summary),[4]; low-dose glucarpidase 24 hours after MTX,rapid reduction in serum MTX levels
same,safety and efficacy at approved dose,"[16]; 50 units/kg, patients with delayed MTX elimination from renal impairment",safe and efficacious
same,"patients reporting nausea, vomiting, hypotension, paresthesias, flushing, and headache",[16]; in vivo,< 3%
same,glucarpidase in the CSF,[6]; in vivo,not detected
